This is an account of results in US20240076387A1 (published 2024).

Where a chain is given by its changes, count along the chain named. Values joined by “and” are separate entries in the source; they are usually repeats but may differ in a detail not shown here. Equal entries are not always repeated.

B1: 27H9 (antibody, human IgG1, lambda, V domains shown)
VH: EVQLLESGGGLVQPGGSLRLSCAASGFTFRDYSMSWVRQAPGKGLEWVSAISWNGDSTYYAESAKGRFTISRDNSKNTLYLQMNSLRAEDTAVYYCAKSWATPIESLYYYGSDYWGQGTLVTVSS
VL: SYELTQPLSVSVALRQTARITCGGNNIGSQTAQWYQQKPGQAPVLVIYANNRRPSGIPERFSGSKSGNTATLTISRAQAEDEADYYCQVWDESTQAIVFGGGTKLTVLG
notes: also called 27H9 WT; 27H9 WT 23/07
B2: 21B3 (antibody, V domains shown)
VH: B1 VH with V2L, L5V, A64M, S75A, R87K, A88S, S112M, Q117K
VL: SYELTQSPSVSVALRQTAKITCGGNNIGSQTAQWYQQKPGQAPVLVIYANNRRPSGIPERFSGSKSGNTATLTISGAQAEDEADYYCQVWDGSTQAIVFGGGTHLTVL
notes: also called 21B3 WT; antibody 21B3
B3: 27H4 (antibody, human IgG1, lambda, V domains shown)
VH: B1 VH with V2L, L5V, A64L, S75A
VL: B1 VL with R15G, D91E, E92D
notes: also called 27H4 WT; antibody 27H4
B4: 27H6 (antibody, human IgG1, lambda, V domains shown)
VH: B1 VH with V2L, L5V, R30S, M34A, N54S, A64V, S71F
VL: B1 VL with T17A, R19K, E80G, E92G
notes: also called 27H6 WT; antibody 27H6
B5: 27H9 Fab (Fab, V domains shown)
VH: B1 VH
VL: B2 VL with S7P, P8L, K19R, G76R, G92E, H104K
notes: also called 27H9_VH
B6: 27H4 Fab (Fab, V domains shown)
VH: B1 VH with V2L, L5V, A64L, S75A
VL: B2 VL with S7P, P8L, R15G, K19R, G76R, D91E, G92D, H104K
notes: also called 27H4_VH
B7: 25D4 Fab (Fab, V domains shown)
VH: B1 VH with M34A, A64V, S75A
VL: B2 VL with S7P, P8L, R15G, K19R, D91A, G92A, H104K
notes: also called 25D4_VH
B8: 25G9 Fab (Fab, V domains shown)
VH: B1 VH with S52T, N54S, A64V, S112T, Q117K
VL: B2 VL with S7P, P8L, T17A, K19R, G76R, G92D, H104K
notes: also called 25G9_VH
B9: 25F11 Fab (Fab, V domains shown)
VH: B1 VH
VL: B2 VL with S7P, P8L, T17A, K19R, G76R, D91E, G92A, H104K
notes: also called 25F11_VH
B10: 27G9 Fab (Fab, V domains shown)
VH: B1 VH with M34A, N54S, A64L, Q117K
VL: B2 VL with S7P, P8L, R15G, G76R, D91E, G92E
notes: also called 27G9_VH
B11: 27H6 Fab (Fab, V domains shown)
VH: B1 VH with V2L, L5V, R30S, M34A, N54S, A64V, S71F
VL: B2 VL with S7P, P8L, T17A, G76R, E80G, H104K
notes: also called 27H6_VH
B12: 27H9 NG/NA (antibody, human IgG1, lambda)
heavy: not shown
light: SYELTQPLSVSVALRQTARITCGGNNIGSQTAQWYQQKPGQAPVLVIYANNRRPSGIPERFSGSKSGNTATLTISRAQAEDEADYYCQVWDESTQAIVFGGGTKLTVLGQPKAAPSVTLFPPSSEELQANKATLVCLISDFYPGAVTVAWKADSSPVKAGVETTTPSKQSNNKYAASSYLSLTPEQWKSHRSYSCQVTHEGSTVEKTVAPTECS
B13: 27H9 NG/QG (antibody, human IgG1, lambda, V domains shown)
VH: B1 VH with N54Q
VL: B1 VL
B14: 21B3 AAA (antibody, human IgG1, lambda, V domains shown)
VH: B1 VH with V2L, L5V, A64M, S75A, R87K, A88S, S112M, Q117K
VL: B1 VL with P7S, L8P, R19K, R76G, E92G, K104H
notes: AAA mutation in the Fc region
B15: 27H9 NG/NA AAA (antibody, human IgG1, lambda)
heavy: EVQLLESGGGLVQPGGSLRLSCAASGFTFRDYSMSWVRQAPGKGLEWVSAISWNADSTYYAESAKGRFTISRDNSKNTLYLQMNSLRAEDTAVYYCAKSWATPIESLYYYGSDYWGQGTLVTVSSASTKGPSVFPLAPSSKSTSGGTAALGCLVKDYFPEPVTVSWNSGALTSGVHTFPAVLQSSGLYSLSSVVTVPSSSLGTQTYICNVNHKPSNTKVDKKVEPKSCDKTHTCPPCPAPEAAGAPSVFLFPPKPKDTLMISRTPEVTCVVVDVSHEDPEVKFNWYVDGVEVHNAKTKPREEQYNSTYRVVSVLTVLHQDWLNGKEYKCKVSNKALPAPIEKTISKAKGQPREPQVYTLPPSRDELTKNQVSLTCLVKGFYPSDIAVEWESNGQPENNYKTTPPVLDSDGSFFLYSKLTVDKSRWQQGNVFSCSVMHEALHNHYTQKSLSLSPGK
light: B12 light
notes: also called 27H9_NA_+_AAA; 27H9 NA + AAA

The target of one test is T1, Flt-1 antigen (species not stated) (Homo sapiens (Human), UniProt P17948 27-656).
T1 construct: also called sFlt-1; soluble Flt-1
T1 sequence (P17948 other isoform, or with tags, fused parts or gaps limits assumed, form in doubt): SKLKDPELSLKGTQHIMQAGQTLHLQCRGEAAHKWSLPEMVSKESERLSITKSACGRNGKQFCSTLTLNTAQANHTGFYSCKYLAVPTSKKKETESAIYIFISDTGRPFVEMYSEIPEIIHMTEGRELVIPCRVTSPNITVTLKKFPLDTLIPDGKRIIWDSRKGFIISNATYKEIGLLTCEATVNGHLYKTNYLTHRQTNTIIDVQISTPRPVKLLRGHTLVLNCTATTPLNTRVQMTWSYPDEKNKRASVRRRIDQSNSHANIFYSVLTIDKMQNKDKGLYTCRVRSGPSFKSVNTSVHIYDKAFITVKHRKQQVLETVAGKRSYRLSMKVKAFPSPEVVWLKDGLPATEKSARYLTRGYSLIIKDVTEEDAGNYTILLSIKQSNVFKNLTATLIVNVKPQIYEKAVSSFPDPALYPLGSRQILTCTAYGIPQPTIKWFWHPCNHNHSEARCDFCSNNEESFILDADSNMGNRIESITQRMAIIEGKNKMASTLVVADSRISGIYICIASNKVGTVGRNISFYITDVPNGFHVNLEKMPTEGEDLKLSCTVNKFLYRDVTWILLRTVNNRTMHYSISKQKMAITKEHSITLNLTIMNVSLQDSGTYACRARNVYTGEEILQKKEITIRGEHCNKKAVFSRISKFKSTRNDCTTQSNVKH
Description: Biacore.
As a reminder, the Kd is the concentration at which binding is half-saturated. Read a high Kd as lower affinity. As usually defined, the koff is the rate constant with which the complex falls apart. One may read the kon as the second-order rate constant of association. High values mean fast association, low ones slow association. Take B1: binding was characterised by a dissociation constant (Kd) of 0.26 nM, the koff was found to be 8.4e-05 s⁻¹ and the kon is 330000 M⁻¹ s⁻¹.
The molecule B2 yielded a Kd of 0.32 nM, a koff of 0.00017 s⁻¹ and a kon of 540000 M⁻¹ s⁻¹.
On the same counts, the results for B3 are 0.25 nM, 8.2e-05 s⁻¹ and 340000 M⁻¹ s⁻¹.
With B4, the affinity, expressed as Kd, was 0.16 nM; the koff was determined as 0.00014 s⁻¹; the kon came to 910000 M⁻¹ s⁻¹.

The target in the next test is T1, Flt-1 antigen (species not stated at …). Briefly: off-rate of Fabs, method not stated.
For B5, the “kd IMPROVEMENT (against parent 21B3)” value is 1.12.
B6: the “kd IMPROVEMENT (against parent 21B3)” value came to 1.06.
As to B7, the “kd IMPROVEMENT (against parent 21B3)” value was 0.94.
As to B8, the “kd IMPROVEMENT (against parent 21B3)” value was 0.97.
Regarding B9, the “kd IMPROVEMENT (against parent 21B3)” value was determined as 1.
Regarding B10, the “kd IMPROVEMENT (against parent 21B3)” value amounted to 1.3.
In the case of B11, the “kd IMPROVEMENT (against parent 21B3)” value stood at 0.96.

For another test the target is unchanged. Description: kinetics, method not stated (Table 7).
B2: binding was characterised by a dissociation constant (Kd) of 0.0848 nM, the koff was 4.73e-05 s⁻¹ and the kon stood at 558000 M⁻¹ s⁻¹.

Another test shares this target. Briefly: surface plasmon resonance (Biacore), EXP 1. A general note: In SPR one partner is held on a chip, and binding of the other changes the refractive index at the surface.
On to B1, for which the Kd is 0.23 nM and 0.26 nM; the koff is 7.9e-05 s⁻¹ and 8.4e-05 s⁻¹; the kon was 350000 M⁻¹ s⁻¹ and 330000 M⁻¹ s⁻¹.
Turning to B12, the Kd came to 0.39 nM, the koff came out at 0.00011 s⁻¹ and the kon came out at 290000 M⁻¹ s⁻¹.
In turn, B13 returned a Kd of 0.36 nM, a koff of 0.00013 s⁻¹ and a kon of 370000 M⁻¹ s⁻¹.

A further test has the same target. Briefly: surface plasmon resonance (Biacore), EXP 2.
As for B14, the Kd was 0.21 nM, the koff came to 0.00011 s⁻¹ and the on-rate (kon) is 520000 M⁻¹ s⁻¹.
In turn, B2 registered a Kd of 0.32 nM, a koff of 0.00017 s⁻¹ and a kon of 540000 M⁻¹ s⁻¹.
Regarding B15, the Kd was 0.51 nM, the koff was 0.00015 s⁻¹ and the kon is 290000 M⁻¹ s⁻¹.
On the same counts, the results for B12 are 0.51 nM, 0.00015 s⁻¹ and 290000 M⁻¹ s⁻¹.

The target is the same in a further test. Briefly: surface plasmon resonance (Biacore); reference not named.
For the molecule B15, the “fold reduced binding affinity” value is around 2 fold.

For a further test the target is unchanged. Description: kinetics of Table 7; 'increased' is said of a higher affinity (lower KD).
Consider B2, for which the “fold change of KD against parent antibody 13B4” value was around 5 fold.
